Data published in patent US20240261333A1, “NOVEL TARGETS FOR ENHANCING ANTI-TUMOR IMMUNITY” (THE BROAD INSTITUTE, INC., priority 2021, published 2024).

Legend:
[1] = target: CEP170 (UniProt Q5SW79); assay: co-IP, anti-FLAG, lysate of C-FLAG B3GNT2 cells, mass spectrometry
[2] = target: RBMX (UniProt P38159); assay: as above
[3] = target: SLC25A10 (UniProt Q9UBX3); assay: as above
[4] = target: SLC25A3 (UniProt Q00325); assay: as above
[5] = target: SMN1 (UniProt Q16637); assay: as above
[6] = target: CDSN (UniProt Q15517); assay: co-IP, anti-FLAG, N-FLAG B3GNT2 cell lysate, mass spectrometry
[7] = target: DNAJA2 (UniProt O60884); assay: as above
[8] = target: EMD (UniProt P50402); assay: as above
[9] = target: HIST1H1E (UniProt P10412); assay: as above
[10] = target: ITGB3 (UniProt P05106); assay: as above
[11] = target: MTCH2 (UniProt Q9Y6C9); assay: as above
[12] = target: MTDH (UniProt Q86UE4); assay: as above
[13] = target: PBXIP1 (UniProt Q96AQ6); assay: as above
[14] = target: POF1B (UniProt Q8WVV4); assay: as above
[15] = target: PSMA7 (UniProt O14818); assay: as above
[16] = target: RPL19 (UniProt P84098); assay: as above
[17] = target: RPL27A (UniProt P46776); assay: as above
[18] = target: RPL3 (UniProt P39023); assay: as above
[19] = target: RPL35 (UniProt P42766); assay: as above
[20] = target: TAGLN (UniProt Q01995); assay: as above
[21] = target: TMEM59 (UniProt Q9BXS4); assay: as above
[22] = target: ARF4 (human) (UniProt P18085); assay: co-IP with anti-FLAG, mass spectrometry; lysate of cells with N-FLAG B3GNT2
[23] = target: ARHGEF2 (human) (UniProt Q92974); assay: as above
[24] = target: DNAJB11 (human) (UniProt Q9UBS4); assay: as above
[25] = target: EIF4A1 (human) (UniProt P60842); assay: as above
[26] = target: EPRS (human) (UniProt P07814); assay: as above
[27] = target: HSPD1 (human) (UniProt P10809); assay: as above
[28] = target: ILF3 (human) (UniProt Q12906); assay: as above
[29] = target: MARS (human) (UniProt P56192); assay: as above
[30] = target: MSN (human) (UniProt P26038); assay: as above
[31] = target: MYO1C (human) (UniProt O00159); assay: as above
[32] = target: PIGR (human) (UniProt P01833); assay: as above
[33] = target: PSMD4 (human) (UniProt P55036); assay: as above
[34] = target: SEL1L (human) (UniProt Q9UBV2); assay: as above
[35] = target: SLC25A5 (human) (UniProt P05141); assay: as above
[36] = target: SPRR1A (human) (UniProt P35321); assay: as above
[37] = target: UGGT1 (human) (UniProt Q9NYU2); assay: as above
[38] = target: ZC3HAV1 (human) (UniProt Q7Z2W4); assay: as above

Sequence of ITGB3 (P05106 27-788 limits assumed): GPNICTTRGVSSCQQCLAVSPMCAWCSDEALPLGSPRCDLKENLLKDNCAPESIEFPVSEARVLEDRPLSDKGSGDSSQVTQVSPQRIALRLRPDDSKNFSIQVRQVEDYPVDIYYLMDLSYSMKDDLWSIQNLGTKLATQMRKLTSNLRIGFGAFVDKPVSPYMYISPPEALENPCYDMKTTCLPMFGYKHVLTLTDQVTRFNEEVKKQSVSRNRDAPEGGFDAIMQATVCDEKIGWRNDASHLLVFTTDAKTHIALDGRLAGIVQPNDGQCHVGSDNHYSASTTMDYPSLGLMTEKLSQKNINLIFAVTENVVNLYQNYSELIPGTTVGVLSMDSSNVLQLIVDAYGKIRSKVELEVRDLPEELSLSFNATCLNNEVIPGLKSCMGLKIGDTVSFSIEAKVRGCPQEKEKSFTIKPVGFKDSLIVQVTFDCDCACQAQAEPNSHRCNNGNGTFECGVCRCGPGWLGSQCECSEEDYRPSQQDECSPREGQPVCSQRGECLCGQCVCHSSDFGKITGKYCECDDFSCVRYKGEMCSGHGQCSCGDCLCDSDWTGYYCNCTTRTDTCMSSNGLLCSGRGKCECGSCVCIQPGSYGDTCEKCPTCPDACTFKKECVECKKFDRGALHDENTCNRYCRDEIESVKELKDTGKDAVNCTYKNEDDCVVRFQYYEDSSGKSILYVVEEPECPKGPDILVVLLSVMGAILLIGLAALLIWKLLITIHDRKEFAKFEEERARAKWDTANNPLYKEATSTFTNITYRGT
Sequence of MYO1C (human) (O00159 other isoform, or with tags, fused parts or gaps limits assumed): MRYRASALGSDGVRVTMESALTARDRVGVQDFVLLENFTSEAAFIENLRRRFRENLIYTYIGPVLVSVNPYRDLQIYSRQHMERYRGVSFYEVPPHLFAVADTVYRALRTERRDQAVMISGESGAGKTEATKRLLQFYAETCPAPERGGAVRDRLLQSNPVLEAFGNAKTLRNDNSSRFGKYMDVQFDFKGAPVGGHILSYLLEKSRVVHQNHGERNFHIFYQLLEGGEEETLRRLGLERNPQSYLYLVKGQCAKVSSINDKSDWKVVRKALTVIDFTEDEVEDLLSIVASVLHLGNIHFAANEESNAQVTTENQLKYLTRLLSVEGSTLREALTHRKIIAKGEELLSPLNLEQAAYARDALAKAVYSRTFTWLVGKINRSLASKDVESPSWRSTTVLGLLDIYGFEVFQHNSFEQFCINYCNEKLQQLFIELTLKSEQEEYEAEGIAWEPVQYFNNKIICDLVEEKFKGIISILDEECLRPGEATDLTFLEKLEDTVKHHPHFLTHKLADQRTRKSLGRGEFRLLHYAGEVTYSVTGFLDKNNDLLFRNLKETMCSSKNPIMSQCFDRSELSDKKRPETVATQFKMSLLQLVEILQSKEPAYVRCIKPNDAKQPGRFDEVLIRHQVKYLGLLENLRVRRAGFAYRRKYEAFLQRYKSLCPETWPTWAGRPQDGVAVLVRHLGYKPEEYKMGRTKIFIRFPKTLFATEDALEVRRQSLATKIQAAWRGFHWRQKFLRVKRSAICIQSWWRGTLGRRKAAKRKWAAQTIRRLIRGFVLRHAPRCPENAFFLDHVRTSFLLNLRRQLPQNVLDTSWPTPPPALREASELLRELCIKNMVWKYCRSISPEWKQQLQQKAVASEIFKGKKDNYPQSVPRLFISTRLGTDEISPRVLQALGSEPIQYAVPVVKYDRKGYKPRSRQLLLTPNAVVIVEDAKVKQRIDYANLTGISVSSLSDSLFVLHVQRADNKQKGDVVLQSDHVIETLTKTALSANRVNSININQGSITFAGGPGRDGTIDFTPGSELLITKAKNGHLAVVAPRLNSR
Sequence of EMD (P50402 whole entry): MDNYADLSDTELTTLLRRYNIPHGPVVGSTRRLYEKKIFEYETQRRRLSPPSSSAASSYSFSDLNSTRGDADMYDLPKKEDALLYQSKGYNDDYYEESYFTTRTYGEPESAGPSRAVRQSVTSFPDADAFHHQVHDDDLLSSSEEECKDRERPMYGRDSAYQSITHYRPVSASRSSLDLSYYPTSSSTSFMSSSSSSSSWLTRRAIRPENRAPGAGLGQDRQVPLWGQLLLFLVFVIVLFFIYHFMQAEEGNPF
Sequence of TAGLN (Q01995 2-201 limits assumed): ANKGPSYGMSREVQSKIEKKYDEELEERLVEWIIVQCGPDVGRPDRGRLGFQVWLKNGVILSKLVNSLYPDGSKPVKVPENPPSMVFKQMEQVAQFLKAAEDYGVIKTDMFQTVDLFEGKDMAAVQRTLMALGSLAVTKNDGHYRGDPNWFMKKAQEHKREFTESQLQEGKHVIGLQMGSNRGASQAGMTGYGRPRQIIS
Sequence of SLC25A10 (Q9UBX3 other isoform, or with tags, fused parts or gaps limits assumed): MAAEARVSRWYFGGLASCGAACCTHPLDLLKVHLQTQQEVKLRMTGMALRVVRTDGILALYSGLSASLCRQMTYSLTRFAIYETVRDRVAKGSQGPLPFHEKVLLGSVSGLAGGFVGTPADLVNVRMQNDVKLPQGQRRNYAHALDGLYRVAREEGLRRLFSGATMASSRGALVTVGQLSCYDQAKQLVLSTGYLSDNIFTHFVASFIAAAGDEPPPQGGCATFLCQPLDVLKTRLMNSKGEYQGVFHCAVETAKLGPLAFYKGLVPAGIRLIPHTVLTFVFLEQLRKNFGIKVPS
Sequence of PSMA7 (O14818 whole entry): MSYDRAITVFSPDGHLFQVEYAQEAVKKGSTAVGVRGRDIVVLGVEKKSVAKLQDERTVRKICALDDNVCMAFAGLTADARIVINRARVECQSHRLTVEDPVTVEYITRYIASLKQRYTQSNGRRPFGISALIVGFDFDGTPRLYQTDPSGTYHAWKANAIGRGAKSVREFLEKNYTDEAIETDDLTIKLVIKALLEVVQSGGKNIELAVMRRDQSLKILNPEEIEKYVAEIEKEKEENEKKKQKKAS
Sequence of PBXIP1 (Q96AQ6 30-731 limits assumed): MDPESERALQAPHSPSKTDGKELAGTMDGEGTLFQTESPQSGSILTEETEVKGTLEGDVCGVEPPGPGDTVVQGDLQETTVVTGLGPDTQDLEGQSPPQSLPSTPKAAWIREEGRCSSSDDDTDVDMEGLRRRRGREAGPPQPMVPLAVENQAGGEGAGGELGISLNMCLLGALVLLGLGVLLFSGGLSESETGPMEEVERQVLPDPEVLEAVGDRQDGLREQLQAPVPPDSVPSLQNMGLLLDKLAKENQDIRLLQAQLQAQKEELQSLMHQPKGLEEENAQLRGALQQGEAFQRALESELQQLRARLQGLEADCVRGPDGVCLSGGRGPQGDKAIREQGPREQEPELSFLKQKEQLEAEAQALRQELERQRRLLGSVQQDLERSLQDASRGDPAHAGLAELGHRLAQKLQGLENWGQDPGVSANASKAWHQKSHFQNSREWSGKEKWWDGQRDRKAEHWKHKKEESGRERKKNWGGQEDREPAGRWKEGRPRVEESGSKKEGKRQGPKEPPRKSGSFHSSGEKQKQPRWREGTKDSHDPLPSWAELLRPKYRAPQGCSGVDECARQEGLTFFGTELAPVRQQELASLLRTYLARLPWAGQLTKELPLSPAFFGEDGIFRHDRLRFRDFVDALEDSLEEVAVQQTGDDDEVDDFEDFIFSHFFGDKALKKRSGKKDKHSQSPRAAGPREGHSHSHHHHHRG
Sequence of HSPD1 (human) (P10809 27-573 limits assumed): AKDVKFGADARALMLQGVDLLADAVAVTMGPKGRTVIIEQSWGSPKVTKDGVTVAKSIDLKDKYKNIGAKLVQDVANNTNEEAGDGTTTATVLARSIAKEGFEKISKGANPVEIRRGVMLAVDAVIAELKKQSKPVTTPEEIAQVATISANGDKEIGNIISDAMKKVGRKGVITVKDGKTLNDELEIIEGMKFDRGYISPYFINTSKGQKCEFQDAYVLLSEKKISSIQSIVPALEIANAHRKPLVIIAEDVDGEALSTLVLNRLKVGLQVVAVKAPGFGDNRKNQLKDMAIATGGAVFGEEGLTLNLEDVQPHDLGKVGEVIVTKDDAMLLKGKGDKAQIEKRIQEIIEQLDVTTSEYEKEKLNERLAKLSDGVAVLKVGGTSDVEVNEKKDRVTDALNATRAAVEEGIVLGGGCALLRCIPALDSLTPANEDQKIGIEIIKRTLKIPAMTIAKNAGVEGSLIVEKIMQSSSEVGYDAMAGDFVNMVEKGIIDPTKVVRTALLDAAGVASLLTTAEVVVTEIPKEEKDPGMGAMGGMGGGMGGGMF
Sequence of CDSN (Q15517 33-529 limits assumed): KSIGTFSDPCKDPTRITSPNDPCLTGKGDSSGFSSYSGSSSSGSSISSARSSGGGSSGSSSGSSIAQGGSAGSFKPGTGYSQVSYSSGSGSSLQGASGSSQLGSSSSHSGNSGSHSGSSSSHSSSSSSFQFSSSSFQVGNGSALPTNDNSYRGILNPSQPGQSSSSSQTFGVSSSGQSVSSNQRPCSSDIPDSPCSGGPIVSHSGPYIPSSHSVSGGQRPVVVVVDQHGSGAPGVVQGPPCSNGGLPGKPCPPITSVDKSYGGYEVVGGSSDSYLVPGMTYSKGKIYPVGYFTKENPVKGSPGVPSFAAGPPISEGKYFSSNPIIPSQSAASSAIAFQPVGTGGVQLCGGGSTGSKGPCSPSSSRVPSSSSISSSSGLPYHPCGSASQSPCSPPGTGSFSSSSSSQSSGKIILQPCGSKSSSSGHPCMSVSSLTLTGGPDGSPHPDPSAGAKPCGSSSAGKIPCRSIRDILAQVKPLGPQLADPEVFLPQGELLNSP
Sequence of SMN1 (Q16637 other isoform, or with tags, fused parts or gaps limits assumed): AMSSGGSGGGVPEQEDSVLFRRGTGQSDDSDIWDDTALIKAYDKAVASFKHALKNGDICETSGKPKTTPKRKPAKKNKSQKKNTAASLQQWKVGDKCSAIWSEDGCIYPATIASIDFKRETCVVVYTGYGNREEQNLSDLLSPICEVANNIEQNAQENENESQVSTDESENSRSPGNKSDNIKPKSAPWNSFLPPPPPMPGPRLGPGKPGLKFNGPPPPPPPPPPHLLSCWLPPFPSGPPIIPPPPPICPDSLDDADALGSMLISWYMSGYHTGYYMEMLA
Sequence of SPRR1A (human) (P35321 whole entry): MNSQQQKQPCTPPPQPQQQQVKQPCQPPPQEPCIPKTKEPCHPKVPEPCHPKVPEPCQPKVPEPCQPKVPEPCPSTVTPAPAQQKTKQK

With “C-terminal FLAG tagged B3GNT2 (from UniProt Q9NY97 1-397) (enzyme)” the co-IP/MS count [1] was 2, the co-IP/MS count [2] was 2 and the co-IP/MS count [3] was 6. The co-IP/MS count [4] was 9 and the co-IP/MS count [5] was 14.

In the case of “N-terminal FLAG tagged B3GNT2 (from UniProt Q9NY97 1-397) (enzyme)”, the co-IP mass spectrometry count [6] is reported as 5, the co-IP mass spectrometry count [7] is reported as 3 and the co-IP mass spectrometry count [8] is reported as 2. For the same substance, the co-IP mass spectrometry count [9] was 6, the co-IP mass spectrometry count [10] was 3 and the co-IP mass spectrometry count [11] was 4. The co-IP mass spectrometry count [12] was 0, the co-IP mass spectrometry count [13] was 2 and the co-IP mass spectrometry count [14] was 5. It also gave a co-IP mass spectrometry count [15] of 4, a co-IP mass spectrometry count [16] of 8 and a co-IP mass spectrometry count [17] of 7. The co-IP mass spectrometry count [18] was 8, the co-IP mass spectrometry count [19] was 7 and the co-IP mass spectrometry count [20] was 2. It also gave a co-IP mass spectrometry count [21] of 6, a co-IP mass spectrometry count [22] of 4 and a co-IP mass spectrometry count [23] of 0. It also gave a co-IP mass spectrometry count [24] of 3, a co-IP mass spectrometry count [25] of 2 and a co-IP mass spectrometry count [26] of 3. The co-IP mass spectrometry count [27] was 10, the co-IP mass spectrometry count [28] was 2 and the co-IP mass spectrometry count [29] was 2. The co-IP mass spectrometry count [30] was 3, the co-IP mass spectrometry count [31] was 4 and the co-IP mass spectrometry count [32] was 2. It also gave a co-IP mass spectrometry count [33] of 2, a co-IP mass spectrometry count [34] of 3 and a co-IP mass spectrometry count [35] of 19. For the same substance, the co-IP mass spectrometry count [36] was 4, the co-IP mass spectrometry count [37] was 2 and the co-IP mass spectrometry count [38] was 3.
